Patent JP2004000045A (dated 2004)

What was measured:
ヒト前立腺特異的膜抗原(PSMA) [1] = molecular target: T1, ヒト前立腺特異的膜抗原(PSMA) (human, UniProt Q04609 1-750); experiment: flow cytometry, 10 μg/mL, Namalwa KJM-1 cells transfected with PSMA cDNA (pAMoPSMA)
T1 construct: whole, on cells; also called PSMA; ヒトPSMA

ヒト前立腺特異的膜抗原(PSMA) [2] = molecular target: T1, ヒト前立腺特異的膜抗原(PSMA); experiment: flow cytometry, 10 μg/mL, LNCaP cells

T1 sequence (Q04609 whole entry): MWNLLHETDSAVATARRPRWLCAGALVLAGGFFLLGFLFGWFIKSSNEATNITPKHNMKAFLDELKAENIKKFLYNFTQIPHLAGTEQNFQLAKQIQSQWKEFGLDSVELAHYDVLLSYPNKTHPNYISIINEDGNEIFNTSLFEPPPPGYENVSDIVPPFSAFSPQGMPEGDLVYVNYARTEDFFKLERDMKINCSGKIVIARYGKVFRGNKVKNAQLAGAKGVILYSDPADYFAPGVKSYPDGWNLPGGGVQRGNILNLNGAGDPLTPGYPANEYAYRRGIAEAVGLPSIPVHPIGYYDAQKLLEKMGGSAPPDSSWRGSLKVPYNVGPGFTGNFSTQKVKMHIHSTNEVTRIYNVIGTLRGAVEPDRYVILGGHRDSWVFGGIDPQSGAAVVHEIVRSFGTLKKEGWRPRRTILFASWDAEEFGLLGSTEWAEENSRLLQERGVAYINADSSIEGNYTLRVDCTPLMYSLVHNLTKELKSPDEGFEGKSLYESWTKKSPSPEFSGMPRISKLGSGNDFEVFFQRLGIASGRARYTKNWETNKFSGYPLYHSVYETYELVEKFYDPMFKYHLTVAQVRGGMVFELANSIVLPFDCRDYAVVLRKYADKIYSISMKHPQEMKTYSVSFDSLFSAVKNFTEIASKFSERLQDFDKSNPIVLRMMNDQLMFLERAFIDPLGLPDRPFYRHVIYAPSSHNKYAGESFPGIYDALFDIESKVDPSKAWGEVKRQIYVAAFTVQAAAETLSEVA

binding result (ヒト前立腺特異的膜抗原(PSMA) [1])	binding result (ヒト前立腺特異的膜抗原(PSMA) [2])	Binder
binds		抗PSMAマウス抗体2C9 (antibody, V domains shown, Whole mouse antibody from hybridoma; also called マウスモノクローナル抗体2C9; 2C9) VH: DVHLQESGPGLVKPSQSLSLTCTVTGYSITSDYAWNWIRQFPGNKLEWMGYISFSGSTSYNPSLKSRISVTRDTSKNQFFLQLNSVTTEDTATYYCARWNYYGSSHVWFAYWGQGTLVTVSA VL: DIKMTQSPSSMYASLGERVTITCKASQDIYSYLIWFQQKPGKSPKTLIYRANRLVDGVPSRFSGSGSGQDYSLTISSLEYEDMGIYYCLQYDEFATFGSGTKLEMKR
	binds	抗PSMAキメラ抗体KM2777 (antibody, human IgG1, V domains shown, Human-type chimeric antibody: 2C9 VH joined to human IgG1 CH and 2C9 VL joined to human kappa CL (vector pKANTEX93), produced in YB2/0 cells; also called KM2777; 抗PSMAヒト型キメラ抗体) VH: DVHLQESGPGLVKPSQSLSLTCTVTGYSITSDYAWNWIRQFPGNKLEWMGYISFSGSTSYNPSLKSRISVTRDTSKNQFFLQLNSVTTEDTATYYCARWNYYGSSHVWFAYWGQGTLVTVSA VL: DIKMTQSPSSMYASLGERVTITCKASQDIYSYLIWFQQKPGKSPKTLIYRANRLVDGVPSRFSGSGSGQDYSLTISSLEYEDMGIYYCLQYDEFATFGSGTKLEMKR
	binds	アドリアマイシン結合抗PSMAキメラ抗体ADM−KM2777 (antibody, human IgG1, V domains shown, as for the heavy chain: linker on amino groups, sites not stated; adriamycin-(Gly-Pro)-PEG linker (PEG average MW about 2,000) coupled through NHS ester to amino groups of the antibody; on average 2.5 ADM per antibody molecule; sites not stated, also called ADM-KM2777) VH: DVHLQESGPGLVKPSQSLSLTCTVTGYSITSDYAWNWIRQFPGNKLEWMGYISFSGSTSYNPSLKSRISVTRDTSKNQFFLQLNSVTTEDTATYYCARWNYYGSSHVWFAYWGQGTLVTVSA VL: DIKMTQSPSSMYASLGERVTITCKASQDIYSYLIWFQQKPGKSPKTLIYRANRLVDGVPSRFSGSGSGQDYSLTISSLEYEDMGIYYCLQYDEFATFGSGTKLEMKR
